± gives the standard deviation of the averaged measurements.
Test system: ATP
Experiment: switch fluorescence ratio, 500 uM ATP over buffer (Cy3 cluster intensity, sum of 5 cycles each) (fold (ratio)); higher = stronger signal-on switching upon ATP binding; sequences stand for … in TCGTCGGCAGCGTCAGATGTGTATAAGAGACAGTTTTTTTTTTTTTTTTTTTTTTTTT…TC
Details: aptamer strand: ATP DNA aptamer (quencher-CACCTGGGGGAGTATTGCGGAGGAAGG + anchor), 100 nM annealed; ATP concentration: 500 uM
Procedure, shortened: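 After annealing to 100 nM quencher-labelled ATP aptamer, Cy3-labelled switching-strand clusters on a modified Illumina MiSeq flow-cell were imaged in selection buffer. A second image followed after 15 min with 500 uM ATP at 22 °C, and five such buffer/ATP cycles were done, each separated by NaOH stripping and re-annealing. The fluorescence ratio, averaged per switch-domain sequence, is summed target-cycle over summed buffer-cycle Cy3 intensity per cluster, with clusters outside 100-1000 RFU excluded.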
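Also: ATP exposure 15 min at 22 °C before imaging.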

Sequence	switch fluorescence ratio
TGAGTCCTCG	0.995 ± 0.064
AATAGGGCG	1.038 ± 0.0084
ATGTCGTGGC	1 ± 0.048
GACGTTATGG	1.04 ± 0.016
TTTAAGGTTG	0.986 ± 0.023
GGGGAGGAAA	0.999 ± 0.029
TAAATAGTGG	0.987 ± 0.013
ACTACGTCGG	1.08 ± 0.044
CAATTGCAAT	1.02 ± 0.02
TGGGGCTTTT	1.02 ± 0.053
CAATATCCCG	1.05 ± 0.028
TGACGGCCTG	1.06 ± 0.022
CGGGTTAGCC	0.998 ± 0.021
GCTTTAATTT	1.07 ± 0.045
GGATTAAATT	0.9996 ± 0.0019
ACGTTGATGG	0.9882 ± 0.0095
ATGTGTGAGG	1.01 ± 0.014
TAGGACACGT	1.03 ± 0.012
GGGGTAAGGA	1 ± 0.021
GTTGTTTGGG	0.99 ± 0.034
TGGGCTCCGG	1 ± 0.031
AGACAGTAGG	1.03 ± 0.03
CATCTCTGGA	0.9986 ± 0.0016
TAGATTGATG	1.0281 ± 0.00078
TAATTTTGTG	0.975 ± 0.044
TCGGGATAAG	1.01 ± 0.018

Sequence	switch fluorescence ratio
CGGGGTCATG	0.991 ± 0.024
AAGTTCACGG	1.06 ± 0.025
TTCCGGTAAT	1.23 ± 0.033
TATTTAAAGT	1.02 ± 0.049
TAGATTTTTT	1.02 ± 0.019
TAAGTTTGTG	0.996 ± 0.05
GAAAGCGGCT	1.032 ± 0.0089
AAATCTCTTA	0.997 ± 0.015
ATTTGCAGCA	1.02 ± 0.014
AGGACGGCCA	0.998 ± 0.021
GCGATCCAAA	1 ± 0.037
CGGGACAGTT	1 ± 0.061
TAAGGGGTAA	0.947 ± 0.019
AGAAGGGTT	1.016 ± 0.0044
GACGGGATTG	1.015 ± 0.006
ATAGTGAAGT	0.982 ± 0.019
AAATAATTTC	1 ± 0.027
GCAGGAGCCT	1.01 ± 0.011
CGGGAAAATA	1.03 ± 0.014
GAGATATTTA	0.9905 ± 0.0036
TGGGTTGGAT	0.99 ± 0.013
GCAGCACGCA	1.03 ± 0.032
GGTGGATGCC	1.02 ± 0.04
GAGGATTTTG	1.003 ± 0.0089
GGATAGTCGG	1 ± 0.028
GGCTCTTCGG	0.989 ± 0.04

Sequence	switch fluorescence ratio
AGTAGGTAGT	0.968 ± 0.019
TAAATATGTG	0.986 ± 0.021
CGTAGTGGCT	1.04 ± 0.04
TAAGTTATTT	0.986 ± 0.031
CTGAGAGTAC	1.05 ± 0.07
GCGGGTATGT	1.04 ± 0.023
GTTTAGATGT	0.994 ± 0.02
GTTTAAATTA	1.02 ± 0.018
CAGTTTGAGT	1.006 ± 0.0014
GTAATTTGGT	0.9904 ± 0.0032
TGAGAGAGGG	0.983 ± 0.012
AGGGCGACG	1.05 ± 0.079
CTTAAAGTAT	0.9977 ± 0.0024
TGATGGATGA	1.01 ± 0.02
CGGTTCGCCT	0.998 ± 0.016
GGGGAATGGC	1.05 ± 0.1
TGCAATGCAC	1.558 ± 0.0038
TGGGGTTCAC	0.998 ± 0.018
GGGTGAAGGT	0.9866 ± 0.0047
GGGAACATTT	1.022 ± 0.0086
ATTTTAGATC	1.01 ± 0.034
GAAACGGATG	0.993 ± 0.041
CGTCGCAGAA	1.093 ± 0.004
AAATTTTCGA	1.018 ± 0.0088
ACAGGGGAGA	1.03 ± 0.024
TACAACTCTC	0.963 ± 0.077

Sequence	switch fluorescence ratio
GTTGACAGTG	1 ± 0.062
GGAGAGGTTT	1.05 ± 0.059
CGTGTGGAAA	1.02 ± 0.018
TTTGGATTTA	1.03 ± 0.057
GATGCGACCA	1.04 ± 0.065
TATATTGCAT	1.01 ± 0.015
ACTTATCAGG	1.04 ± 0.045
AGGGAGGGTT	1 ± 0.039
TCCGAAGGGT	0.991 ± 0.045
TCTAGACGTC	0.9972 ± 0.0081
CCTATGGGTT	1.05 ± 0.015
GCTGAGTAAC	0.99 ± 0.0017
GCTTGGGTTC	1 ± 0.018
GGGGGAGTTA	0.989 ± 0.026
TTTTTTTACT	1.02 ± 0.029
GCTAGGGGAA	0.985 ± 0.031
TAAAAGCAAT	2.1 ± 0.9
CATGTTGCTG	1.09 ± 0.029
GGCAGATGAC	0.9674 ± 0.0031
TAGGGGGTAG	1.01 ± 0.036
AGCTTTGGGT	1.01 ± 0.016
AAGGAGAATA	1.03 ± 0.012
GAACGGACAC	1.45 ± 0.015
TTATGGGCGT	1.02 ± 0.02
ACTCACGGAG	1.16 ± 0.036
TTTTTATCAT	0.998 ± 0.037

Sequence	switch fluorescence ratio
CCAGGCTTGT	1.01 ± 0.018
ATTTAGTGGT	1 ± 0.028
TTACGATTTT	0.993 ± 0.039
TCAGTTTTTT	0.999 ± 0.035
GGGATTATTT	0.972 ± 0.02
CTTCGGACGG	1.24 ± 0.036
GATTTTCGTA	0.985 ± 0.025
TCACAGGTTT	1.05 ± 0.017
GCATAAAGGA	0.9684 ± 0.0075
ATTAGGGGCC	0.976 ± 0.018
TCGATGGGGG	0.942 ± 0.013
GGGTGGGAGG	0.991 ± 0.034
TAAAAGATCG	1.03 ± 0.034
GGAGGCCATG	0.967 ± 0.01
AAAGCACTTT	1.099 ± 0.0022
GAGTTCAATG	1.01 ± 0.03
GACATTGTTG	1.04 ± 0.055
GTCGAAGGTG	1.11 ± 0.03
TACTTTTGGA	1.02 ± 0.04
GACGTCAGAT	0.9767 ± 0.0018
GACGAAAGGC	1.05 ± 0.02
GGGCAGTGGG	1.05 ± 0.074
TTTTGGGGGG	1.02 ± 0.081
TGTCAGTTGG	1.02 ± 0.06
TTGTTGCAGC	1.02 ± 0.035
GAAAATAGAT	0.9663 ± 0.0028

Sequence	switch fluorescence ratio
CGCCATTTTT	0.9822 ± 0.0022
CCTCTATTCT	1.1 ± 0.026
GTTTGTATAG	1 ± 0.03
GAATGGGGGT	0.982 ± 0.02
TAGGATTAAT	0.999 ± 0.012
GTGACTTCAA	1.027 ± 0.0059
AATGGTGGTT	0.996 ± 0.03
AACGTTTTCC	1.23 ± 0.1
ACCGTTTGGT	0.999 ± 0.038
ATGTGCTTAG	1.04 ± 0.084
TTTGGTTAAT	0.959 ± 0.027
AGGGAAAAAC	2.45 ± 2
ATGGGGGTGT	1.004 ± 0.0059
TGCCGAAAGT	0.962 ± 0.033
AATGCTGGGG	1.05 ± 0.081
AGCTGAGGGA	1.015 ± 0.0066
GATTTACTGG	1.04 ± 0.024
AAGGGACGTG	0.984 ± 0.019
GGACACAGGC	1.01 ± 0.023
AAAGAGCAAG	1.11 ± 0.034
GTGGGTATAC	1.01 ± 0.026
AGGGTATTAT	0.987 ± 0.019
TATCTAAAGT	1.01 ± 0.029

Reference: the supplement of paper PMC10126150
